# Changes are numbered by the printed parent chain. Names and notes keep the numbering of the source.
# B1: AncFT: Ancestral protein AncHLD-RLuc with the L9-α4 region transplanted from RLuc; glow-type coelenterazine-utilizing luciferase (protein)
# chain: MVSASQRTTSTATGDEWWAKCKQVDVLDSEMSYYDSDPGKHKNTVIFLHGNPTSSYLWRNVIPHVEPLARCLAPDLIGMGKSGKLPNHSYRFVDHYRYLSAWFDSVNLPEKVTIVCHDWGSGLGFHWCNEHRDRVKGIVHMESVVDVIESWDEWPDIEEDIALIKSEAGEEMVLKKNFFIERLLPSSIMRKLSEEEMDAYREPFVEPGESRRPTLTWPREIPIKGDGPEDVIEIVKSYNKWLSTSKDIPKLFINADPGFFSNAIKKVTKNWPNQKTVTVKGLHFLQEDSPEEIGEAIADFLNELTK
# modifications: Amino acid sequence of AncFT
# B2: AncFT-L14: AncFT with additionally transplanted L14 loop (LVKGGKP at positions 223 to 229) from RLuc (protein)
# chain: B1 chain with I223L, K224V, G225K, D226G, P228K, E229P
# modifications: Amino acid sequence of AncFT-L14
# notes: AncFT with additionally transplanted L14 loop (LVKGGKP at positions 223 to 229) from RLuc
# B3: AncFT-D160A: AncFT carrying the single-point D160A mutation; blue-shifted emission (protein)
# chain: B1 chain with D160A
# modifications: Amino acid sequence of AncFT-D160A
# notes: AncFT carrying the single-point D160A mutation; blue-shifted emission
# B4: Super RLuc8: Recently reported RLuc8 enzyme variant (Rahnama et el., 2017) (protein)
# chain: MTSKVYDPEQRKRMITGPQWWARCKQMNVLDSFINYYDSEKHAENAVIFLHGNATSSYLWRHVVPHIEPVARCIIPDLIGMGKSGKSGNGSYRLLDHYKYLTAWFELLNLPKKIIFVGHDWGSALAFHYAYEHQDRIKAIVHMESVVDVIESWKNWPDIEEELALIKSEEGEKMVLENNFFVETVLPSVIMRKLEPEEFAAYLEPFKEKGEVRRPTLSWPREIPLVKGGKPDVVQIVRNYNAYLRASDDLPKLFIESDPGWFSNAIIEGAKKFPNTEFVKVKGLHFLQEDAPDEMGKYIKSFVERVLKNEQ
# modifications: Super RLuc8
# Legend:
# [1] = Steady-state kinetic analysis of full-conversion cumulative luminescence curves; type: biochemical; conditions: for kcat / Kd: 100 mM phosphate buffer pH 7.5, 37° C.; for Kd: read-out: Kp (equilibrium dissociation constant for enzyme-product complex); for Decrease of ratio Km/Kp: compared to the other tested variants; for Glow-type effectivity: kcat/Km divided by Km/Kp
# Method: Each luminescence trace was measured in 3 repetitions. The concentration of coelenterazine in the final reaction mixture ranged from 0.2 to 7.9 μM while the concentration of luciferase enzymes ranged from 17 to 640 nM.
# An updated protocol applying new standards for collecting and fitting steady-state kinetic data was used. Unlike the classical initial velocity analysis, which requires a sophisticated luminometer calibration and quantum yield evaluation, luminescence data were recorded when letting the reaction proceed to completion beyond the initial linear phase. The recorded luminescence traces (rate vs. time) were transformed to reaction progress curves corresponding to cumulative luminescence in time. The transformed kinetic data (product vs. time) were fitted globally with the KinTek Explorer (KinTek Corporation, USA). The software allows for the input of a given kinetic model via a simple text description, and the program then derives the differential equations needed for numerical integration automatically.
# Numerical integration of rate equations searching a set of kinetic parameters that produce a minimum χ^2 value was performed using the Bulirsch-Stoer algorithm with adaptive step size, and nonlinear regression to fit data was based on the Levenberg-Marquardt method. To account for fluctuations in experimental data, enzyme or substrate concentrations were slightly adjusted (5%) to derive best fits. Residuals were normalized by sigma values for each data point. The standard error was calculated from the covariance matrix during nonlinear regression. In addition to standard error values, more rigorous analysis of the variation of the kinetic parameters was accomplished by confidence contour analysis by using FitSpace Explorer (KinTek Corporation, USA). In these analyses, the lower and upper limits for each parameter were derived from the confidence contour obtained from setting χ^2 threshold at 0.9. The scaling factor, relating luminescence signal to product concentration, was applied as one of the fitted parameters, well constrained by end-point levels of kinetic traces recorded at particular substrate concentrations. Depletion of the available substrate after the reaction was ensured by repeated injection of the fresh enzyme.
# The steady-state model, described by Equation (4), was used to obtain the values of turnover number kcat, Michaelis constant Km, and equilibrium dissociation constant for enzyme-product complex Kp. A conservative estimate for diffusion-limited substrate and product binding k1 and k3 (100 μM^−1·s^−1) was used as a fixed value to mimic the rapid equilibrium assumption. An alternative form of the model, described by Equation (5), was used to obtain estimates of kcat/Km directly by setting k−1=0.
# [2] = Thermal unfolding by NanoDSF (tryptophan fluorescence); type: physicochemical; conditions: 100 mM potassium phosphate buffer pH 7.5, 1° C./min
# Method: Thermal unfolding was studied using NanoDSF Prometheus (NanoTemper, Germany) by monitoring tryptophan fluorescence over the temperature range of 20 to 90° C., at a heating rate of 1° C./min. The melting temperatures (Tonset and Tm) were evaluated directly by ThermControl v2.0.2.
# [3] = Stopped-flow pre-steady-state kinetics of substrate binding (tryptophan fluorescence quenching); conditions: 15° C.
# Method: The measurement was performed at 15° C. in 100 mM potassium phosphate buffer pH 7.5. Rapid mixing of the components was achieved using the Stopped-Flow SFM 3000 combined with the MOS-500 spectrometer (BioLogic, France). The reaction was initiated by mixing 75 μL of an enzyme with 75 μL of coelenterazine and then monitored by the change of native tryptophan fluorescence (295 nm excitation, 340±13 nm emission). The fluorescence changes were caused by the quenching effect of the coelenterazine substrate upon its binding by an enzyme. The experiment was designed in two different modes, varying either the concentration of the coelenterazine substrate or the concentration of an enzyme. Each kinetic trace was measured in seven consecutive replicates and averaged. The concentration of coelenterazine in the final reaction mixture ranged from 0.9 to 90 μM while the concentration of luciferase enzymes ranged from 0.4 to 94 μM.
# The collected double-exponential kinetic traces were fitted globally with the KinTek Explorer (KinTek Corporation, USA). The software allows for the input of a given kinetic model via a simple text description, and the program then derives the differential equations needed for numerical integration automatically. Numerical integration of rate equations searching a set of kinetic parameters that produce a minimum χ^2 value was performed using the Bulirsch-Stoer algorithm with adaptive step size, and nonlinear regression to fit data was based on the Levenberg-Marquardt method. Residuals were normalized by sigma values for each data point. The standard error was calculated from the covariance matrix during nonlinear regression. In addition to standard error values, more rigorous analysis of the variation of the kinetic parameters was accomplished by confidence contour analysis by using FitSpace Explorer (KinTek Corporation, USA). In these analyses, the lower and upper limits for each parameter were derived from the confidence contour obtained from setting the χ^2 threshold at 0.95.
# The time-course of the fluorescence quenching upon substrate binding was described with Equation (7) according to the induced-fit binding mechanism and the mechanism was fit directly to the collected kinetic data to obtain the values of elementary rate constants describing the substrate binding process. The quality of the best fits was compared in terms of χ^2 values, “chi-by-eye” assessment, and confidence contour analysis assessing constraint and independency of the determined parameters which confirmed that the obtained values are well-defined by the collected kinetic data.
# [4] = Anaerobic equilibrium binding of coelenterazine substrate (fluorescence)
# Method: The experiments were performed under strictly anaerobic conditions to prevent enzymatic oxidation of interacting ligands. To do so, all the equipment and material, including water, buffer, pipettes, tips, syringes, microplates, and sealing, were made anaerobic by incubating them overnight in the anaerobic glovebox Belle MR2 (Belle Technology, UK). The box was filled with ultra-high purity (UHP) nitrogen atmosphere containing the residual oxygen concentration of 2.3 ppm, as determined by the oxygen meter O2M-3 (Belle Technology, UK). Liquids were aliquoted to the volume of maximally 50 mL and were stirred overnight in the box to release any dissolved oxygen. Two hours prior to the experiment, a closed bottle with an evacuated lyophilized enzyme (oxygen depleted) was put into the glovebox, dissolved with anaerobic water, and incubated to remove any remaining oxygen possibly dissolved in the solution. Similarly, the stock solution of coelenterazine or coelenteramide in ethanol, which was long-term stored in a freezer under the nitrogen atmosphere without oxygen, was put into the glovebox in a closed bottle. A small aliquot of coelenterazine/coelenteramide was transferred into a new empty bottle and kept open for about 20 minutes to remove the remaining dissolved oxygen. After the incubation, a few microliters of an enzyme were mixed with the same amount of coelenterazine, and the mixture was visually inspected for any possible bioluminescence. If no light was observed and the mixture remained yellow even after a minute, all the reagents were ready for anaerobic measurements.
# (§1) In the anaerobic glovebox, 200 μL of a differently concentrated enzyme was put into a separate well in a microplate and into each of these wells, 5 μL of coelenterazine or coelenteramide stock solution was added. As a blank, 200 μL of the enzyme was mixed with 5 μL of ethanol for each enzyme concentration. […] The extent of coelenterazine binding at each concentration was determined by measuring fluorescence spectra ranging from 480 to 580 nm upon excitation at 420 nm using the microplate spectrophotometer Varioskan LUX (Thermo Scientific, USA). Binding of coelenteramide was monitored by measuring fluorescence spectra ranging from 350 to 700 nm upon excitation at 330 nm. […]
# The obtained fluorescence spectra were visually inspected for characteristic peaks, and the value of the maximal fluorescence intensity Fluomax at these peaks was plotted against the enzyme concentration. The final value of the dissociation constant Kd was determined by fitting the dependence with the hyperbolic Equation (8) using the software Origin 6.1 (OriginLab, USA).
# [5] = Anaerobic equilibrium binding of coelenteramide product (fluorescence); conditions: pH 7.5, 30° C., read-out: Dissociation constant Kd, Coelenteramide product
# Method: The experiments were performed under strictly anaerobic conditions to prevent enzymatic oxidation of interacting ligands. To do so, all the equipment and material, including water, buffer, pipettes, tips, syringes, microplates, and sealing, were made anaerobic by incubating them overnight in the anaerobic glovebox Belle MR2 (Belle Technology, UK). The box was filled with ultra-high purity (UHP) nitrogen atmosphere containing the residual oxygen concentration of 2.3 ppm, as determined by the oxygen meter O2M-3 (Belle Technology, UK). Liquids were aliquoted to the volume of maximally 50 mL and were stirred overnight in the box to release any dissolved oxygen. […] If no light was observed and the mixture remained yellow even after a minute, all the reagents were ready for anaerobic measurements.
# as §1, with “added.” for “added. As a blank, 200 μL of the enzyme was mixed with 5 μL of ethanol for each enzyme concentration.”
Molecule,kcat [1] [s⁻¹],Kd [1] [µM],Decrease of ratio Km/Kp [1] [fold],Glow-type effectivity [1],Tm [2] [°C],Tonset [2] [°C],k+2 ([3]; pH 7.5) [s⁻¹],k−1 ([3]; pH 7.5) [s⁻¹],k−2 ([3]; pH 7.5) [s⁻¹],"k+1 ([3]; pH 7.5, induced-fit binding mechanism) [M⁻¹ s⁻¹]","Kd ([4]; anaerobic, pH 7.5, 30° C., read-out: Dissociation constant Kd, Coelenterazine substrate) [µM]",Kd ratio substrate/product ([4]; ratio),Kd [5] [µM],Improvement of glow-type effectivity ([1]; compared to AncFT) [fold],Improvement of glow-type effectivity ([1]; compared to RLuc8)
B1,0.111 ± 0.001,0.5 ± 0.1,10,12 ± 3,56.6 ± 0.1,50.5 ± 0.1,31.9 ± 1.1,367 ± 5,27.5 ± 0.4,5.21e+06 ± 70000,12 ± 5,0.7 ± 0.3,16 ± 2,–,–
B2,0.168 ± 0.001,0.55 ± 0.03,10,48 ± 6,47.0 ± 0.1,39.8 ± 0.2,–,–,–,–,–,–,–,4,more than 20 fold
B3,0.339 ± 0.001,0.23 ± 0.01,10,3.6 ± 0.3,57.9 ± 0.1,51.5 ± 0.1,–,–,–,–,–,–,–,–,–
B4,6.49 ± 0.05,0.92 ± 0.01,–,0.17 ± 0.02,50.1 ± 0.2,39.1 ± 0.3,–,–,–,–,–,–,–,–,–

# — patent US20240279622A1, “COELENTERAZINE-UTILIZING LUCIFERASES WITH STABLE GLOW-TYPE LIGHT EMISSION AND METHODS OF PRODUCING AND USING THEREOF” (MASARYKOVA UNIVERZITA, priority 2021, published 2024)
